Among the data in US20170290876A1 (Novartis, published 2017) are Kd, koff and kon values, retold here.

As a reminder, the Kd is the constant that tells how readily two partners part at equilibrium. The term koff denotes the first-order rate constant of dissociation. The low end stands for slow dissociation, the high end for fast dissociation. As a reminder, the kon is the second-order rate constant of association. Read a low kon as slower complex formation.

One assay has as its target T1, human Factor P (human, UniProt P27918 28-469, biotinylated (site not stated)).
T1 construct: also called Factor P-biotin; Hu factor P-biotin
Put plainly: Biacore SPR, Hu factor P-biotin, 37 C.

In assay [1] the target is T2, human VEGF (human, UniProt P15692 207-395, biotinylated (site not stated)).
T2 construct: Biotinylated human VEGF generated internally; also called hVEGF; hVEGF-biotin
T2 sequence: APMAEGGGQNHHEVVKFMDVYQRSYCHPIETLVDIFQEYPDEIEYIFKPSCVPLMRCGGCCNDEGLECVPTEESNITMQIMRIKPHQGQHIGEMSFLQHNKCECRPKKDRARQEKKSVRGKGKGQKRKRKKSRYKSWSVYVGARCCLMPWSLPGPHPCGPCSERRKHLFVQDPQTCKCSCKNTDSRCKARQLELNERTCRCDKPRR
Put plainly: Biacore SPR, hVEGF. On the technique in general: In SPR one partner is held on a chip, and binding of the other changes the refractive index at the surface.

In another assay the target is T3, human TNFα (human, UniProt P01375 77-233, biotinylated (site not stated)).
T3 construct: also called TNFα-biotin; Hu TNFα-biotin
T3 sequence (P01375 77-233 limits assumed): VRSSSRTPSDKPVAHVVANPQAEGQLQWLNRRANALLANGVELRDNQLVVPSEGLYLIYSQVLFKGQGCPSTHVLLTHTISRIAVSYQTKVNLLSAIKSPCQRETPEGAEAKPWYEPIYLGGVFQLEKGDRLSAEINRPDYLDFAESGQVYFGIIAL
Put plainly: Biacore SPR, Hu TNFα-biotin, 37 C.

Assay [2] addresses T2, human VEGF. Put plainly: Biacore SPR, human VEGF.
Experimental: (§1) In order to determine target kinetics, two different formats were utilized. […] The second format is an anti-fab capture method in which the fab protein samples are captured and the target proteins flowed over at various concentrations.
(§2) The sample compartment which includes the analytes, ligands, and regeneration buffer, is kept at 15° C. All other running conditions were carried out at either 25° C. or 37° C. in 1×HBSE+P buffer. […] Data was collected at 10 Hz and analyzed using the Biacore T200 Evaluation Software (GE Healthcare®). This program uses a global fitting analysis method for the determination of rate and affinity constants for each interaction.
In assay [3] the target is T2, human VEGF. Put plainly: Biacore SPR, hVEGF-biotin, 25 C.
In assay [4] the target is T2, human VEGF. In words: Biacore SPR, Hu VEGF-biotin, 25 C.
Experimental: as §1, §2

Substitutions are numbered along the chain they refer to.

T1 sequence (P27918 28-469 limits assumed): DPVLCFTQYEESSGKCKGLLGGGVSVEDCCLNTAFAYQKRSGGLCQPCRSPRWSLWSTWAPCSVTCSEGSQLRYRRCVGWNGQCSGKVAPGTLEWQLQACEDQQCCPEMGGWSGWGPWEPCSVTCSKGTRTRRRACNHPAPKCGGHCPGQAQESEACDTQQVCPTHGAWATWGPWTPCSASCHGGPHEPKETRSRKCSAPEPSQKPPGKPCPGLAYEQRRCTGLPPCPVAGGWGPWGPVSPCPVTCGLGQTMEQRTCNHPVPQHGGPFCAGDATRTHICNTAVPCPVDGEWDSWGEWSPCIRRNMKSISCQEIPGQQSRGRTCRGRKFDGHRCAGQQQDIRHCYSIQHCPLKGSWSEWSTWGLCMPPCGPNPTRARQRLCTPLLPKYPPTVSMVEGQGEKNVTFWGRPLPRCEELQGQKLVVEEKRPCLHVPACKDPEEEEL

B1: NVS71 (Fab, V domains shown)
VH: EVQLVQSGAEVKKPGSSVKVSCKASGGTFSSYAISWVRQAPGQGLEWMGRIIPIFGTANYAQKFQGRVTITADESTSTAYMELSSLRSEDTAVYYCARHGGYSFDSWGQGTLVTVSS
VL: SYELTQPPSVSVAPGQTARISCSGDNLGSKYVDWYQQKPGQAPVLVIYSDNNRPSGIPERFSGSNSGNTATLTISGTQAEDEADYYCQTYTSGNNYLVFGGGTKLTVLG
notes: Untagged anti-Factor P Fab
In the assay with human Factor P, B1 returned a dissociation constant (Kd) of 543 pM, a koff of 0.00161 s⁻¹ and a kon of 2.96e+06 M⁻¹ s⁻¹.

B2: NVS104 (Fab)
heavy: GACGVYHREAQSGKYYLTYAEAKAVCEFEGGHLATYKQLLCAQKIGFHVCAAGWMAKGRVGYPIVKPGPNCGFGKTGIIDYGIRLNRSERWDAYCYNPHAGGGSQVQLVESGGGLVQPGGSLRLSCTASGFSLTDYYYMTWVRQAPGKGLEWVGFIDPDDDPYYATWAKGRFTISRDNSKNTLYLQMNSLRAEDTAVYYCAGGDHNSGWGLDIWGQGTLVTVSSASTKGPSVFPLAPSSKSTSGGTAALGCLVKDYFPEPVTVSWNSGALTSGVHTFPAVLQSSGLYSLSSVVTVPSSSLGTQTYICNVNHKPSNTKVDKRVEPKSC
light: ACGVYHREAQSGKYYLTYAEAKAVCEFEGGHLATYKQLLCAQKIGFHVCAAGWMAKGRVGYPIVKPGPNCGFGKTGIIDYGIRLNRSERWDAYCYNPHAGGGSDIVMTQSPSTLSASVGDRVIITCQASEIIHSWLAWYQQKPGKAPKLLIYLASTLASGVPSRFSGSGSGAEFTLTISSLQPDDFATYYCQNVYLASTNGANFGQGTKLTVLKRTVAAPSVFIFPPSDEQLKSGTASVVCLLNNFYPREAKVQWKVDNALQSGNSQESVTEQDSKDSTYSLSSTLTLSKADYEKHKVYACEVTHQGLSSPVTKSFNRGEC
notes: Tag NVS-AX at the N-terminus of NVS4 heavy and light chains
In the assay with human VEGF [1], B2 displayed a Kd of 0.854 pM, a koff of 1.57e-05 s⁻¹ and a kon of 1.84e+07 M⁻¹ s⁻¹.

B3: NVS106 (Fab)
heavy: B2 heavy with Q105E, D135N, D159Q, D160N, D204N, D212N
light: B2 light with D104E, E130Q, I131K, L153Q, T156K, S159K
notes: Tag NVS-AX at the N-terminus of the LC2 light chain and the HC4 heavy chain
With B3, in the assay with human VEGF [1], the Kd was found to be 10.4 pM, the koff was 0.000563 s⁻¹ and the on-rate constant (kon) is 5.4e+07 M⁻¹ s⁻¹.

B4: NVS73 (Fab, V domains shown)
VH: EVQLVESGGGSVQPGGSLRLSCTASGFTISRSYWICWVRQAPGKGLEWVGCIYGDNDITPLYANWAKGRFTISRDTSKNTVYLQMNSLRAEDTATYYCARLGYADYAYDLWGQGTTVTVSS
VL: EIVMTQSPSTLSASVGDRVIITCQSSQSVYGNIWMAWYQQKPGRAPKLLIYQASKLASGVPSRFSGSGSGAEFTLTISSLQPDDFATYYCQGNFNTGDRYAFGQGTKLTVLK
notes: Untagged anti-TNFα Fab
On to B4, for which, in the assay with human TNFα, the affinity, expressed as Kd, was 26 pM; the koff worked out at 8.01e-05 s⁻¹; the kon was determined as 3.08e+06 M⁻¹ s⁻¹.

B5: NVS4 (Fab)
heavy: EVQLVESGGGLVQPGGSLRLSCTASGFSLTDYYYMTWVRQAPGKGLEWVGFIDPDDDPYYATWAKGRFTISRDNSKNTLYLQMNSLRAEDTAVYYCAGGDHNSGWGLDIWGQGTLVTVSSASTKGPSVFPLAPSSKSTSGGTAALGCLVKDYFPEPVTVSWNSGALTSGVHTFPAVLQSSGLYSLSSVVTVPSSSLGTQTYICNVNHKPSNTKVDKRVEPKSC
light: EIVMTQSPSTLSASVGDRVIITCQASEIIHSWLAWYQQKPGKAPKLLIYLASTLASGVPSRFSGSGSGAEFTLTISSLQPDDFATYYCQNVYLASTNGANFGQGTKLTVLKRTVAAPSVFIFPPSDEQLKSGTASVVCLLNNFYPREAKVQWKVDNALQSGNSQESVTEQDSKDSTYSLSSTLTLSKADYEKHKVYACEVTHQGLSSPVTKSFNRGEC
notes: Fab version of the 1008 scFv; also called untagged anti-VEGF Fab
On to B5, for which, in the assay with human VEGF [2], binding was put at a Kd of 5.1 pM, the koff worked out at 1.38e-05 s⁻¹ and the kon was determined as 2.71e+06 M⁻¹ s⁻¹.

B6: NVS36 (Fab)
heavy: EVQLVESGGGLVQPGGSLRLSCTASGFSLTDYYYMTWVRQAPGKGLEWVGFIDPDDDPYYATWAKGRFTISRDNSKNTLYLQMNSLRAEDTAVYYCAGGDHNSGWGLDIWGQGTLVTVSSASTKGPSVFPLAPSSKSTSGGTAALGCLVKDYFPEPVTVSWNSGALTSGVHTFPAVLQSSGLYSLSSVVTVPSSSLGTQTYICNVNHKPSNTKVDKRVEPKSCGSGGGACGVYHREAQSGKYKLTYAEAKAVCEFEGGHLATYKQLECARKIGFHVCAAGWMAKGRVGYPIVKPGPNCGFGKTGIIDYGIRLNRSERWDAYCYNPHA
light: B5 light
notes: NVS4 Fab with HA11 tag; also called NVS4 linked to tag NVS-A
In the assay with human VEGF [1], B6 yielded a Kd of 4.13 pM, a koff of 0.000257 s⁻¹ and a kon of 6.23e+07 M⁻¹ s⁻¹. Also, in the assay with human VEGF [2], binding was characterised by a dissociation constant (Kd) of 0.656 pM, the koff turned out to be 2.5e-05 s⁻¹ and the kon worked out at 3.81e+07 M⁻¹ s⁻¹.

B7: NVS1h (Fab)
heavy: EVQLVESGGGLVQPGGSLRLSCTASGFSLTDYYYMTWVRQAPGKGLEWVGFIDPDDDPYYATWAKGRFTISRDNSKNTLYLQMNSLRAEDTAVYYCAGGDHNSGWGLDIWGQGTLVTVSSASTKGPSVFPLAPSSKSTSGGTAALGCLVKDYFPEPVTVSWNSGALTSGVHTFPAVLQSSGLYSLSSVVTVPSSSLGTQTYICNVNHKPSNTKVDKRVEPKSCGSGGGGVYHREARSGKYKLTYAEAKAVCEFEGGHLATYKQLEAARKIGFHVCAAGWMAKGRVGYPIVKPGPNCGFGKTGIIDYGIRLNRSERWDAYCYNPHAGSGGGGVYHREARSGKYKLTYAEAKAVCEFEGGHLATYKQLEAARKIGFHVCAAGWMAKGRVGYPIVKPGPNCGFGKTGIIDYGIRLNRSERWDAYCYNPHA
light: B5 light
notes: NVS4 with tandem HA tags at the heavy chain C-terminus
In the assay with human VEGF [3], B7 showed a Kd of 0.558 pM, a koff of 8.76e-06 s⁻¹ and a kon of 1.57e+07 M⁻¹ s⁻¹.

B8: NVS1j (Fab)
heavy: B5 heavy
light: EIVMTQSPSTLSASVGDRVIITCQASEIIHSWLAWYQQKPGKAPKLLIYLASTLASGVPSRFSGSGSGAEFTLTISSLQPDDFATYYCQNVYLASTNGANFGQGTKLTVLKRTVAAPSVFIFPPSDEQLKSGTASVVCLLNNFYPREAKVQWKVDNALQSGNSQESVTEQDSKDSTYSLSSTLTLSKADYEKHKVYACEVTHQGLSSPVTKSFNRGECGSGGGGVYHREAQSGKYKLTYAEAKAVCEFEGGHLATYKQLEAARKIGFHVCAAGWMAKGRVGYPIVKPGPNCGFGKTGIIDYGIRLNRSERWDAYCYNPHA
notes: NVS4 with HA tag at the light chain C-terminus
In the case of B8, in the assay with human VEGF [3], the Kd amounted to 5.64 pM, the koff was determined as 0.000172 s⁻¹ and the kon was found to be 3.05e+07 M⁻¹ s⁻¹.

B9: NVS1g (Fab)
heavy: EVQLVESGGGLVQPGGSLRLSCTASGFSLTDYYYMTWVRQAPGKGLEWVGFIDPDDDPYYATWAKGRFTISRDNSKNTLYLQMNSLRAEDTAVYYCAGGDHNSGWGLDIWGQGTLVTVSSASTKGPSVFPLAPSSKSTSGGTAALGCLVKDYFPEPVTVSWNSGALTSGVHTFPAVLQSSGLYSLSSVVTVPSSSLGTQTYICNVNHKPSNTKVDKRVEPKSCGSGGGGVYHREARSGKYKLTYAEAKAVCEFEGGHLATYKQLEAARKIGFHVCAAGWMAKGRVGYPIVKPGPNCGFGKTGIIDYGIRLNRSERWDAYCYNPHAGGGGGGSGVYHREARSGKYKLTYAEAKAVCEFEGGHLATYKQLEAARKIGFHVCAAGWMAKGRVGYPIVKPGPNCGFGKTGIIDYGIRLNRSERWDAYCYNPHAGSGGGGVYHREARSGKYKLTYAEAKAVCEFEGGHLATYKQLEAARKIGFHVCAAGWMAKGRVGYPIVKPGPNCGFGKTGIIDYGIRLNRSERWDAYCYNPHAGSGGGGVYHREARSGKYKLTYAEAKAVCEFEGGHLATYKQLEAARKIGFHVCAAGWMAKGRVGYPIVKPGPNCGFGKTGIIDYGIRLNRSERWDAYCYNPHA
light: B5 light
notes: NVS4 with four tandem HA tags at the heavy chain C-terminus
In the assay with human VEGF [3], B9 yielded a Kd of 5.46 pM and a kon of 614000 M⁻¹ s⁻¹.

B10: NVS103 (Fab)
heavy: B5 heavy
light: DIVMTQSPSTLSASVGDRVIITCQASEIIHSWLAWYQQKPGKAPKLLIYLASTLASGVPSRFSGSGSGAEFTLTISSLQPDDFATYYCQNVYLASTNGANFGQGTKLTVLKRTVAAPSVFIFPPSDEQLKSGTASVVCLLNNFYPREAKVQWKVDNALQSGNSQESVTEQDSKDSTYSLSSTLTLSKADYEKHKVYACEVTHQGLSSPVTKSFNRGECGSGGGACGVYHREAQSGKYYLTYAEAKAVCEFEGGHLATYKQLLCAQKIGFHVCAAGWMAKGRVGYPIVKPGPNCGFGKTGIIDYGIRLNRSERWDAYCYNPHA
notes: Tag NVS-AX at the C-terminus of the NVS4 light chain
For B10, in the assay with human VEGF [1], binding was characterised by a dissociation constant (Kd) of 2.34 pM, the koff came to 0.000128 s⁻¹ and the kon came to 5.49e+07 M⁻¹ s⁻¹.

B11: NVS1 (Fab)
heavy: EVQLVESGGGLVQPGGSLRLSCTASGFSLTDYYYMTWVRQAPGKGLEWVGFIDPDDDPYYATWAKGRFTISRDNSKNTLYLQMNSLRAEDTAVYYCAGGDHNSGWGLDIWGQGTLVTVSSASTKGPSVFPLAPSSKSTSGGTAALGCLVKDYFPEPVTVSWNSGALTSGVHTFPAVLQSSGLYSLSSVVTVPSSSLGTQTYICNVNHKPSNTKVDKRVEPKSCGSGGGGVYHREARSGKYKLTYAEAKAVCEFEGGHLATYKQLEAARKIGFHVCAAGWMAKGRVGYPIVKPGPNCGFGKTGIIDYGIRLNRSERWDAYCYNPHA
light: B5 light
notes: NVS4 Fab with HA10 tag via GSGGG at heavy chain C-terminus
In the assay with human VEGF [2], B11 had a Kd of 0.176 pM, an off-rate (koff) of 1.01e-05 s⁻¹ and a kon of 5.75e+07 M⁻¹ s⁻¹.

B12: NVS3 (Fab)
heavy: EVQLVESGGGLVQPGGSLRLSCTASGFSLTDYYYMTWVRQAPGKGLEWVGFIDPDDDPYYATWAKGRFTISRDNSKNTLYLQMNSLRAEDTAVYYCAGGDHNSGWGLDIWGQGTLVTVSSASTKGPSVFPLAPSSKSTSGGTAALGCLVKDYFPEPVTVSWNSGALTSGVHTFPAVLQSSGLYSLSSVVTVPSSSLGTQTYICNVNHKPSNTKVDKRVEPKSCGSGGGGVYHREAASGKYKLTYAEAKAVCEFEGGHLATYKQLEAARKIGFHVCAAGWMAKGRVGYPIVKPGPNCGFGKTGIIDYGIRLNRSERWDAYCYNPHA
light: B5 light
notes: NVS4 Fab with HA10.2 tag at heavy chain C-terminus
In the assay with human VEGF [2], B12 came in with a dissociation constant Kd of 0.161 pM, a koff of 1.19e-05 s⁻¹ and a kon of 7.39e+07 M⁻¹ s⁻¹.

B13: NVS37 (Fab)
heavy: EVQLVESGGGLVQPGGSLRLSCTASGFSLTDYYYMTWVRQAPGKGLEWVGFIDPDDDPYYATWAKGRFTISRDNSKNTLYLQMNSLRAEDTAVYYCAGGDHNSGWGLDIWGQGTLVTVSSASTKGPSVFPLAPSSKSTSGGTAALGCLVKDYFPEPVTVSWNSGALTSGVHTFPAVLQSSGLYSLSSVVTVPSSSLGTQTYICNVNHKPSNTKVDKRVEPKSCGSGGGGVYHREAQSGKYKLTYAEAKAVCEFEGGHLCTYKQLEAARKIGFHVCAAGWMAKGRVGYPIVKPGPNCGFGKTGIIDYGIRLNRSERWDAYCCNPHA
light: B5 light
notes: NVS4 Fab with HA11.1 tag
In the assay with human VEGF [2], B13 displayed a Kd of 3.07 pM, a koff of 7.21e-05 s⁻¹ and a kon of 2.35e+07 M⁻¹ s⁻¹.

B14: NVS2 (Fab)
heavy: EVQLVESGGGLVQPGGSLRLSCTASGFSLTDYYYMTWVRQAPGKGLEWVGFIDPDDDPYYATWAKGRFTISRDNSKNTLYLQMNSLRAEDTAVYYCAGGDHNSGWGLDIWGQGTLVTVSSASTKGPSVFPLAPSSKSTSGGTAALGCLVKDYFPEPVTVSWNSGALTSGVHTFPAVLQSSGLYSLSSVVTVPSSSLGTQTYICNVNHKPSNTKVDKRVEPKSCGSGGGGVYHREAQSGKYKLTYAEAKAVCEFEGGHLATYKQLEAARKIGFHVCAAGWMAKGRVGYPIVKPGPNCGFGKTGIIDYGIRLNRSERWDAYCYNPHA
light: B5 light
notes: NVS4 Fab with HA10.1 tag at heavy chain C-terminus
In the assay with human VEGF [2], B14 returned a Kd of 0.195 pM, a koff of 1.05e-05 s⁻¹ and a kon of 5.36e+07 M⁻¹ s⁻¹.

B15: NVS84 (designed binder)
chain: SDLGKKLLEAARAGQDDEVRILMANGADVNTADSTGWTPLHLAVPWGHLEIVEVLLKYGADVNAKDFQGWTPLHLAAAIGHQEIVEVLLKNGADVNAQDKFGKTAFDISIDNGNEDLAEILQKAAGSLPETGGGSGHHHHHH
notes: Untagged anti-VEGF DARPin
Consider B15, for which, in the assay with human VEGF [4], the Kd turned out to be 419 pM, the koff was found to be 0.00168 s⁻¹ and the kon came out at 4.01e+06 M⁻¹ s⁻¹.

B16: NVS105 (Fab)
heavy: QVQLVESGGGLVQPGGSLRLSCTASGFSLTDYYYMTWVRQAPGKGLEWVGFIDPDDDPYYATWAKGRFTISRDNSKNTLYLQMNSLRAEDTAVYYCAGGDHNSGWGLDIWGQGTLVTVSSASTKGPSVFPLAPSSKSTSGGTAALGCLVKDYFPEPVTVSWNSGALTSGVHTFPAVLQSSGLYSLSSVVTVPSSSLGTQTYICNVNHKPSNTKVDKRVEPKSCGSGGGACGVYHREAQSGKYYLTYAEAKAVCEFEGGHLATYKQLLCAQKIGFHVCAAGWMAKGRVGYPIVKPGPNCGFGKTGIIDYGIRLNRSERWDAYCYNPHA
light: B10 light
notes: Tag NVS-AX at the C-terminus of NVS4 heavy and light chains
In the assay with human VEGF [1], B16 displayed a Kd of 0.13 pM, a koff of 3.97e-05 s⁻¹ and a kon of 3.06e+08 M⁻¹ s⁻¹.

B17: NVS107 (Fab)
heavy: B16 heavy with Q1E, D31N, D55Q, D56N, D100N, D108N
light: B10 light with D1E, E27Q, I28K, L50Q, T53K, S56K
notes: Tag NVS-AX at the C-terminus of the LC2 light chain and the HC4 heavy chain
Consider B17, for which, in the assay with human VEGF [1], the Kd was determined as 0.741 pM, the koff is 0.000104 s⁻¹ and the kon was found to be 1.41e+08 M⁻¹ s⁻¹.
